Experimental data from patent publication US20090175847A1.

What was measured:
Aβ(1-40) monomer (human) = assay: dot blot densitometry; antigen: Aβ(1-40) monomer, 0.1% NH4OH; the dot is read as a thousands separator
Aβ(1-42) fibrils (human) = Aβ(1-42) fibrils (human) (UniProt P05067); assay: dot blot densitometry; antigen: Aβ(1-42) fibril; the dot is read as a thousands separator
[1] = molecular target: Aβ(20-42) globulomer (human); assay: dot blot densitometry; antigen: Aβ(20-42) globulomer (the reference of the ratio)
[2] = molecular target: Aβ(1-42) globulomer (human) (UniProt P05067); assay: dot blot densitometry; antigen: Aβ(1-42) globulomer
Aβ(1-42) monomer (human) = assay: dot blot densitometry; antigen: Aβ(1-42) monomer, 0.1% NH4OH; the dot is read as a thousands separator (no dot in column 1 of panel A)
Chain of Aβ(1-42) monomer (human) (peptide, as listed by the source): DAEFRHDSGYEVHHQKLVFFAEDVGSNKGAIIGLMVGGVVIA

Chain of Aβ(20-42) globulomer (human) (peptide, as listed by the source): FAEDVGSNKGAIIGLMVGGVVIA
Chain of Aβ(1-40) monomer (human) (peptide, as listed by the source): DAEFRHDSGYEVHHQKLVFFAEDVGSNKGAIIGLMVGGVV

B1: humanized antibody 5F7hum8 (antibody, IgG1, V domains shown)
VH: EVQLVQSGAEVKKPGASVKVSCKASGYTFTTFYIHWVRQAPGQGLEWIGMIGPGSGNTYYNEMFKDKATLTVDTSTSTAYMELSSLRSEDTAVYYCARAKSARAAWFAYWGQGTLVTVSS
VL: DIVMTQSPLSLPVTPGEPASISCRSSQSVVQSNGNTYLEWYLQKPGQSPQLLIYKVSNRFSGVPDRFSGSGSGTDFTLKISRVEAEDVGVYYCFQGSHVPPTFGGGTKVEIKR
A relation between recognition of Aβ(20-42) globulomer and the respective Aβ form (Aβ(1-40) monomer (human)) of over 10000, a relation between recognition of Aβ(20-42) globulomer and the respective Aβ form (Aβ(1-42) fibrils (human)) of over 10000 and a relation between recognition of Aβ(20-42) globulomer and the respective Aβ form [1] of 1 were found for B1 in this work. For the same binder, the relation between recognition of Aβ(20-42) globulomer and the respective Aβ form [2] was 17 and the relation between recognition of Aβ(20-42) globulomer and the respective Aβ form (Aβ(1-42) monomer (human)) was 10400.
